According to patent publication US20060193851A1:

Test system: 10C12 F(ab')2-leucine zipper

factor X
rate of FX activation by relipidated TF(1-243):FVIIa after incubating 10C12 with the substrate FX: 10C12 at up to 200 µg/ml did not inhibit FXa generation in either experimental setting
